We go through five molecules from US20140271456A1, “RADIOTRACER IMAGING USING SODIUM IODIDE SYMPORTER POLYPEPTIDES” (Mayo Foundation for Medical Education and Research, priority 2013, published 2014).

In data set [1] the test system is NIS polypeptide-mediated uptake in stomach. The data set is described as follows: NIS imaging of a mouse fed oral CT contrast agent by gavage. The following applies: mouse with NIS transduced liver, then imaged. In kind it is in vivo.
Description: In the following example, ingestion of barium sulfate was used to enable and enhance discrimination of NIS expression in the liver.
The subject of data set [2] is NIS expressing organs (thyroid and stomach) and BXPC-3-hNIS tumor. Put plainly: SPECT/CT dual isotope imaging of nude mice with BXPC-3-hNIS tumors. The following applies: four hours after i.p. 250 μCi of each isotope. The method, then: FIG. 6. SPECT/CT dual isotope imaging of nude mice implanted with SQ BXPX-3-hNIS tumors. Animals were injected i.p with 250 μCi ^125I and 250 μCi ^99mTc and imaged four hours later. Images were processed using Vivo Quant software. The scale was adjusted manually to get minimal yellow in the tissues.
The stomach and thyroid signals were subtract from the SPECT dataset (FIG. 5). In this experiment, nude female mice (5-week of age) were injected with 3×10^6 BXPC-3-hNIS cells. When tumors reached a diameter of 1 cm, mice were injected I.P. with ^125I sodium iodide (250 μCi) and/or ^99mTc-pertechneate (250 μCi). Four hours post isotope administration, SPECT/CT data were acquired with U-SPECT-II (MiLabs). The SPECT emission data were collected in dual-energy windows to separate the gamma emision energy counts from ^99mTc (140 keV) and ^125I (35 keV). […] Radioiodide thyroid signal subtraction was performed by normalizing the ^125I SPECT data to thyroid tissue on the ^99mTc SPECT data using the image arithmetic tools available in PMOD image fusion software. This was performed in three steps by (1) calculating the normalization factor (i.e., the inverse ratio between the maximum voxel value corresponding to the thyroid tissue on the ^125I SPECT and the maximum voxel value corresponding to the thyroid tissue on the ^99mTc SPECT data set), (2) multiplying each voxel in the ^125I SPECT dataset by this normalization factor, and (3) subtracting the normalized ^125I SPECT dataset from ^99mTc SPECT data set to generate a thyroid subtraction SPECT dataset (FIG. 5C). Similarly, ^99mTc stomach signal subtraction was performed by (1) calculating the normalization factor which in this case is the inverse ratio of the maximum voxel value corresponding to the stomach tissue on the ^99mTc SPECT to the maximum voxel value corresponding to the stomach tissue in the ^125I SPECT data set, (2) multiplying each voxel in the ^99mTc SPECT dataset by this normalization factor, and (3) subtracting the normalized ^99mTc SPECT dataset from ^125I SPECT data set to generate a stomach subtraction SPECT dataset (FIG. 5B).

Another data set relates to Mel624 cells. Put plainly: radiotracer uptake assay in Mel624 cells stably expressing NIS polypeptides. The format is cell-based, human. The following applies: for uptake of pertechnetate (Technetium-99m) / uptake of radioiodide (Iodine-125): Mel624 cells stably expressing the NIS polypeptide, 37° C. for 1 hour, +/−300 μM KClO4, gamma counter. The method, then:
Mel624 cells stably expressing a wild-type human NIS polypeptide (Mel-NIS) or one of two mutant NIS polypeptides (Mel-NIS-93E or Mel-NIS-93Q) were plated in 96-well plates at a density that would lead them to confluency on the day of the uptake assay. 1× Hank's balanced salt solution with calcium, magnesium (HBSS) (Cellgro) and 1 mM HEPES was adjusted to pH 7.3 using KOH (HBBS-HEPES) on the day of the assay. Culture medium was removed from the cells, and 150 μL of HBSS-HEPES+/−300 μM KClO4 was added to the wells. The cells were incubated for 10 minutes at room temperature prior to the addition of radiotracer. Radiotracers, ^125I and ^99mTc, were diluted in HBSS-HEPES to about 70,000 to 100,000 CPM/25 μL (CPM, counts per minute). 25 μL of radiotracer was added to the cells in HBSS-HEPES+/−KClO4, and the cells were incubated at 37° C. for 1 hour. The cells were then washed twice with cold HBSS-HEPES buffer and lysed to release the intracellular radiotracer by adding 200 μL 1M NaOH. Lysates were transferred to strip tubes and quantified using a gamma counter.

Data set [3] deals with BxPC3 cells (human pancreatic tumor cells). The data set is described as follows: 123I/99mTc subtraction SPECT of BxPC3 tumors expressing NIS or NIS-93E in athymic mice. In kind it is in vivo. The conditions noted are these: subcutaneous BxPC3 tumors; four hours after i.p. 123I and 99mTcO4. The method, then:
Image subtraction is used to discriminate a tumor that concentrates only one of two NIS isotopes from organs that concentrate both isotopes (e.g., thyroid gland, stomach, and salivary glands). BxPC3 cells (human pancreatic tumor cells) stably expressing either wild-type human NIS polypeptides or human mutant NIS-93E polypeptides are implanted subcutaneously in the flanks of athymic mice. Once tumors grow to a diameter of 5-8 mm, ^123I/^99mTc subtraction SPECT is performed using a dual-detector SPECT camera. Four hours after the intraperitoneal administration of 250 μCi ^123I sodium iodide and 250 μCi ^99mTcO4, SPECT/CT data are acquired. The SPECT emission data are collected in dual-energy windows to separate the ^99mTc and ^123I counts. The ^99mTc window is centered at 140 keV, and the ^123I window is placed with a 4% offset above 159 keV to minimize the spillover of the ^99mTc photopeak into the much less intense ^123I photopeak. SPECT reconstruction is performed for each of the two acquisition windows. ^123I SPECT voxel intensities on thyroid tissue are normalized to the corresponding ^99mTc SPECT data, and in this way a normalization factor is determined Each voxel in the ^123I SPECT dataset is then multiplied by this normalization factor, and the normalized ^123I SPECT data is subtracted from the ^99mTc SPECT data to create a subtraction SPECT dataset. […]

Numbering of substitutions follows the chain as printed. Entries after “also recorded” stand apart in the source; their conditions may differ.

`O=S(=O)([O-])[O-].[Ba+2]` [barium sulfate]: the results for the “isotope signals from the stomach” value in data set [1] and in data set [1] (listed as oral contrast agent) were “reduced isotope signals from the stomach” and “significant reduction of the stomach signal”, respectively.

In the case of `[125I-].[Na+]` [^125I, ^125I sodium iodide], in data set [2], the accumulation in thyroid result is “preferentially accumulates” and the “accumulation in tumor (BXPC-3-hNIS)” value is recorded as “does not discriminate between the two isotopes; also recorded: accumulate both isotopes to similar concentrations”.

Turning to `[O]=[99Tc](=[O])(=[O])[O-]` [^99mTc, ^99mTc-pertechneate], in data set [2], the accumulation in stomach entry is on record as “preferentially accumulates” and the “accumulation in tumor (BXPC-3-hNIS)” value is on record as “does not discriminate between the two isotopes; also recorded: accumulate both isotopes to similar concentrations”.

B1: NIS-93E: mutant human sodium iodide symporter polypeptide, amino acid sequence SEQ ID NO:1 (FIG. 4) (protein, listed as Homo sapiens)
chain: MEAVETGERPTFGAWDYGVFALMLLVSTGIGLWVGLARGGQRSAEDFFTGGRRLAALPVGLSLSASFMSAVQVLGVPSEAYRYGLKFLWMCLEQLLNSVLTALLFMPVFYRLGLTSTYEYLEMRFSRAVRLCGTLQYIVATMLYTGIVIYAPALILNQVTGLDIWASLLSTGIICTFYTAVGGMKAVVWTDVFQVVVMLSGFWVVLARGVMLVGGPRQVLTLAQNHSRINLMDFNPDPRSRYTFWTFVVGGTLVWLSMYGVNQAQVQRYVACRTEKQAKLALLINQVGLFLIVSSAACCGIVMFVFYTDCDPLLLGRISAPDQYMPLLVLDIFEDLPGVPGLFLACAYSGTLSTASTSINAMAAVTVEDLIKPRLRSLAPRKLVIISKGLSLIYGSACLTVAALSSLLGGGVLQGSFTVMGVISGPLLGAFILGMFLPACNTPGVLAGLGAGLALSLWVALGATLYPPSEQTMRVLPSSAARCVALSVNASGLLDPALLPANDSSRAPSSGMDASRPALADSFYAISYLYYGALGTLTTVLCGALISCLTGPTKRSTLAPGLLWWDLARQTASVAPKEEVAILDDNLVKGPEELPTGNKKPPGFLPTNEDRLFFLGQKELEGAGSWTPCVGHDGGRDQQETNL
B1: the “iodide versus TcO4 concentrating efficiency” value with Mel624 cells is on record as “concentrate iodide with greater efficiency than TcO4”. The “concentration of Iodine-125 uptake in tumor cells as compared to non-mutated NIS (NIS WT)” value in the data set with Mel624 cells (FIGS. 1A and 1B) is given as “decrease”. Besides, the “uptake of pertechnetate (Technetium-99m)” value in the data set on Mel624 cells is “not pertechnetate”; in the data set on Mel624 cells (listed as G93E) it was “not Technetium-99m”; in the data set with Mel624 cells (listed as NIS-G93E) it was “not Technetium-99m”. Also, the “uptake of radioiodide (Iodine-125)” value in the data set with Mel624 cells is “capable of up-taking radioiodide”; in the data set with Mel624 cells (listed as G93E), “selectively transports Iodine-125”; in the data set on Mel624 cells (listed as NIS-G93E), “transport selectively Iodine-125”. Further, the “isotope concentration by tumors expressing the polypeptide, subtraction SPECT” value in data set [3] was “concentrate only iodide and not pertechnetate”.

B2: wild-type human NIS polypeptide: wild-type human sodium iodide symporter polypeptide (protein, UniProt Q92911 1-643, looked up)
Sodium/iodide cotransporter: B1 chain with E93G
For the molecule B2, in the data set with Mel624 cells, the “uptake of pertechnetate (Technetium-99m)” value is given as “Substantial uptake” and the “uptake of radioiodide (Iodine-125)” value is “Substantial uptake”.
